Measurements as given in article doi:10.1101/2021.12.07.471597 (bioRxiv, 2021).

Columns and labels:
[1] = target: VHH72.65-Fc (llama); test: BLI
[2] = target: VHH72.66-Fc (llama); test: BLI
[3] = target: VHH72.71-Fc (llama); test: BLI
[4] = target: VHH72-Fc (llama); test: BLI
[5] = target: VHH72.6-Fc (llama); test: BLI
[6] = target: VHH72.76-Fc (llama); test: BLI
[7] = target: biotinylated SARS-CoV-2 RBD (Wuhan) (SARS-CoV-2, UniProt P0DTC2, biotin); test: flow cytometry on cells

Measured: binding result

B1: SARS-CoV-1 RBD (domain or fragment)
chain: not shown
binds: [1] | [2] | [3] | [4] | [5] | [6]

B2: VHH72 displayed on yeast (VHH)
VHH: QVQLQESGGGLVQAGGSLRLSCAASGRTFSEYAMGWFRQAPGKEREFVATISWSGGSTYYTDSVKGRFTISRDNAKNTVYLQMNSLKPDDTAVYYCAAAGLGTVVSEWDYDYDYWGQGTQVTVSS
binds: [7]
